How the values were obtained:
[1] = biological target: His-LAMA4 as used in Example 6 (species not stated) (Homo sapiens (Human)) (UniProt Q16363); test: ForteBio BLI, LAMA-His on anti-His sensor, antibody 8.33 nM
[2] = biological target: His-LAMA4 as used in Example 6 (species not stated) (Homo sapiens (Human)) (UniProt Q16363); test: ForteBio BLI, LAMA-His on anti-His sensor, antibody 33.3 nM
[3] = biological target: His-LAMA4 as used in Example 6 (species not stated) (Homo sapiens (Human)) (UniProt Q16363); test: ForteBio BLI, LAMA-His on anti-His sensor, antibody 16.7 nM
[4] = biological target: His-LAMA4 as used in Example 6 (species not stated) (Homo sapiens (Human)) (UniProt Q16363); test: Biacore SPR, Fab, steady-state approximation
[5] = biological target: His-LAMA4 as used in Example 6 (species not stated) (Homo sapiens (Human)) (UniProt Q16363); test: Biacore, steady-state approximation; IgG loaded on anti-human Fc sensor, free laminin α4 as analyte; IgG on anti-human Fc sensor, free laminin α4 as analyte; steady state
[6] = biological target: His-LAMA4 as used in Example 6 (species not stated) (Homo sapiens (Human)) (UniProt Q16363); test: Biacore, steady-state approximation; IgG loaded on anti-human Fc sensor, free laminin α4 as analyte
[7] = biological target: His-LAMA4 as used in Example 6 (species not stated) (Homo sapiens (Human)) (UniProt Q16363); test: Biacore SPR, Fab over His-laminin-α4 captured on anti-6xHis
[8] = biological target: His-LAMA4 as used in Example 6 (species not stated) (Homo sapiens (Human)) (UniProt Q16363); test: Biacore SPR, Fab over His-laminin-α4 captured on anti-6xHis; Fab, not IgG; kinetic fit

B1: chimeric 19C12 antibody (antibody, V domains shown)
VH: QVQLQQSGAELVKPGASVKISCKASGYAFSTYWMNWVKQRPGEGLEWIGQIYPGDGDTNYNGKFKGKATLTADKSSSTAYMQLSSLTSEDSAVYFCARSDGYYDYWGQGTTLTVSS
VL: NIVLTQSPASLAVSLGQRATISCRASESVDSYGTSFMHWYQQKPGQPPKLLICLASSLESGVPARFSGSGSRTDFTLTIDPVEADDAATYYCQQNNEDPPTFGAGTKLELKR
Kd [1]: 12.6 pM | Response [1]: 1.15 | koff [1]: 0.000251 s⁻¹ | kon [1]: 2e+07 M⁻¹ s⁻¹ | Kd [2]: 111 pM | Response [2]: 1.38 | koff [2]: 0.000487 s⁻¹ | kon [2]: 4.37e+06 M⁻¹ s⁻¹ | Kd [3]: 53.8 pM | Response [3]: 1.27 | koff [3]: 0.000403 s⁻¹ | kon [3]: 7.49e+06 M⁻¹ s⁻¹

B2: Fab fragment of humanized 19C12 H3L6 (Fab, V domains shown)
VH: EVQLQQSGAELVKPGASVKVSCKASGYAFSTYWMNWVRQAPGQGLEWIGQIYPGDGDTNYNGKFKGRVTITADKSTSTAYMELSSLRSEDTAVYFCARSDGYYDYWGQGTTVTVSS
VL: DIVLTQSPASLAVSLGERATISCRASESVDSYGTSFMHWYQQKPGQPPKLLISLASSLESGVPARFSGSGSGTDFTLTISPVEAEDAATYYCQQNNEDPPTFGAGTKLEIKR
Kd [4]: 7200 pM

B3: humanized 19C12 antibody H2L6 (antibody, V domains shown)
VH: QVQLQQSGAELVKPGASVKVSCKASGYAFSTYWMNWVRQAPGQGLEWIGQIYPGDGDTNYNGKFKGRVTITADKSTSTAYMELSSLRSEDTAVYFCARSDGYYDYWGQGTTVTVSS
VL: DIVLTQSPASLAVSLGERATISCRASESVDSYGTSFMHWYQQKPGQPPKLLISLASSLESGVPARFSGSGSGTDFTLTISPVEAEDAATYYCQQNNEDPPTFGAGTKLEIKR
Kd [1]: 15.4 pM | Response [1]: 1.13 | koff [1]: 0.000308 s⁻¹ | kon [1]: 2e+07 M⁻¹ s⁻¹ | Kd [2]: 123 pM | Response [2]: 1.26 | koff [2]: 0.000585 s⁻¹ | kon [2]: 4.75e+06 M⁻¹ s⁻¹

B4: Fab fragment of humanized 19C12 H2L4 (Fab, V domains shown)
VH: QVQLQQSGAELVKPGASVKVSCKASGYAFSTYWMNWVRQAPGQGLEWIGQIYPGDGDTNYNGKFKGRVTITADKSTSTAYMELSSLRSEDTAVYFCARSDGYYDYWGQGTTVTVSS
VL: NIVLTQSPASLAVSLGERATISCRASESVDSYGTSFMHWYQQKPGQPPKLLISLASSLESGVPARFSGSGSGTDFTLTISPVEAEDAATYYCQQNNEDPPTFGAGTKLEIKR
Kd [4]: 7100 pM

B5: humanized 19C12 antibody H2L3 (antibody, V domains shown)
VH: QVQLQQSGAELVKPGASVKVSCKASGYAFSTYWMNWVRQAPGQGLEWIGQIYPGDGDTNYNGKFKGRVTITADKSTSTAYMELSSLRSEDTAVYFCARSDGYYDYWGQGTTVTVSS
VL: NIVLTQSPASLAVSLGERATISCRASESVDSYGTSFMHWYQQKPGQPPKLLICLASSLESGVPARFSGSGSRTDFTLTIDPVEAEDAATYYCQQNNEDPPTFGAGTKLEIKR
Kd [1]: 12.4 pM | Response [1]: 1.23 | koff [1]: 0.000256 s⁻¹ | kon [1]: 2.07e+07 M⁻¹ s⁻¹ | Kd [2]: 115 pM | Response [2]: 1.54 | koff [2]: 0.000493 s⁻¹ | kon [2]: 4.29e+06 M⁻¹ s⁻¹ | Kd [3]: 50.7 pM | Response [3]: 1.34 | koff [3]: 0.000363 s⁻¹ | kon [3]: 7.16e+06 M⁻¹ s⁻¹ | Kd [5]: 1860 pM

B6: Fab fragment of humanized 19C12 H2L6 (Fab, V domains shown)
VH: QVQLQQSGAELVKPGASVKVSCKASGYAFSTYWMNWVRQAPGQGLEWIGQIYPGDGDTNYNGKFKGRVTITADKSTSTAYMELSSLRSEDTAVYFCARSDGYYDYWGQGTTVTVSS
VL: DIVLTQSPASLAVSLGERATISCRASESVDSYGTSFMHWYQQKPGQPPKLLISLASSLESGVPARFSGSGSGTDFTLTISPVEAEDAATYYCQQNNEDPPTFGAGTKLEIKR
Kd [4]: 8400 pM

B7: humanized 19C12 antibody H3L6 (antibody, V domains shown)
VH: EVQLQQSGAELVKPGASVKVSCKASGYAFSTYWMNWVRQAPGQGLEWIGQIYPGDGDTNYNGKFKGRVTITADKSTSTAYMELSSLRSEDTAVYFCARSDGYYDYWGQGTTVTVSS
VL: DIVLTQSPASLAVSLGERATISCRASESVDSYGTSFMHWYQQKPGQPPKLLISLASSLESGVPARFSGSGSGTDFTLTISPVEAEDAATYYCQQNNEDPPTFGAGTKLEIKR
Kd [1]: 13.5 pM | Response [1]: 1.2 | koff [1]: 0.000286 s⁻¹ | kon [1]: 2.11e+07 M⁻¹ s⁻¹ | Kd [2]: 113 pM | Response [2]: 1.38 | koff [2]: 0.000553 s⁻¹ | kon [2]: 4.89e+06 M⁻¹ s⁻¹ | Kd [3]: 62.6 pM | Response [3]: 1.21 | koff [3]: 0.000501 s⁻¹ | kon [3]: 8.01e+06 M⁻¹ s⁻¹ | Kd [6]: 1360 pM

B8: Fab fragment of chimeric 19C12 (Fab, V domains shown)
VH: QVQLQQSGAELVKPGASVKISCKASGYAFSTYWMNWVKQRPGEGLEWIGQIYPGDGDTNYNGKFKGKATLTADKSSSTAYMQLSSLTSEDSAVYFCARSDGYYDYWGQGTTLTVSS
VL: NIVLTQSPASLAVSLGQRATISCRASESVDSYGTSFMHWYQQKPGQPPKLLICLASSLESGVPARFSGSGSRTDFTLTIDPVEADDAATYYCQQNNEDPPTFGAGTKLELKR
Kd [4]: 980 pM | Kd [7]: 620 pM | koff [7]: 0.0059 s⁻¹ | kon [8]: 9.5e+06 M⁻¹ s⁻¹

B9: humanized 19C12 antibody H2L4 (antibody, V domains shown)
VH: QVQLQQSGAELVKPGASVKVSCKASGYAFSTYWMNWVRQAPGQGLEWIGQIYPGDGDTNYNGKFKGRVTITADKSTSTAYMELSSLRSEDTAVYFCARSDGYYDYWGQGTTVTVSS
VL: NIVLTQSPASLAVSLGERATISCRASESVDSYGTSFMHWYQQKPGQPPKLLISLASSLESGVPARFSGSGSGTDFTLTISPVEAEDAATYYCQQNNEDPPTFGAGTKLEIKR
Kd [1]: 16.1 pM | Response [1]: 1.18 | koff [1]: 0.000268 s⁻¹ | kon [1]: 1.67e+07 M⁻¹ s⁻¹ | Kd [2]: 127 pM | Response [2]: 1.25 | koff [2]: 0.00062 s⁻¹ | kon [2]: 4.87e+06 M⁻¹ s⁻¹ | Kd [3]: 22.7 pM | Response [3]: 1.26 | koff [3]: 0.000227 s⁻¹ | kon [3]: 9.98e+06 M⁻¹ s⁻¹

B10: Fab fragment of humanized 19C12 H2L3 (Fab, V domains shown)
VH: QVQLQQSGAELVKPGASVKVSCKASGYAFSTYWMNWVRQAPGQGLEWIGQIYPGDGDTNYNGKFKGRVTITADKSTSTAYMELSSLRSEDTAVYFCARSDGYYDYWGQGTTVTVSS
VL: NIVLTQSPASLAVSLGERATISCRASESVDSYGTSFMHWYQQKPGQPPKLLICLASSLESGVPARFSGSGSRTDFTLTIDPVEAEDAATYYCQQNNEDPPTFGAGTKLEIKR
Kd [4]: 1900 pM | Kd [7]: 780 pM | koff [7]: 0.0077 s⁻¹ | kon [7]: 9.8e+06 M⁻¹ s⁻¹

Reference: US20170158755A1
